# Laboratory results from patent publication US20210238304A1 (EISAI R AND D MANAGEMENT, published 2021).
# T1: rat mesothelin (rat, UniProt Q9ERA7 298-600, limits assumed)
# T1 sequence (looked up): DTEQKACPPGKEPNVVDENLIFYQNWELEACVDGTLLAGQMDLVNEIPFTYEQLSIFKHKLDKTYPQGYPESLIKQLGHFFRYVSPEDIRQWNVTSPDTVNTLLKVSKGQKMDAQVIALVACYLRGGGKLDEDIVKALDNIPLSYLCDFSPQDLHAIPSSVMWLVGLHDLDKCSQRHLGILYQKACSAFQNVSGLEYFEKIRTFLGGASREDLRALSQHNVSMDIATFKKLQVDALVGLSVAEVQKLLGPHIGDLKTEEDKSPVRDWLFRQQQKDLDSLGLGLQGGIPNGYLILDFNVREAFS
# B1: BAY 94-9343 (anetumab ravtansine) (antibody, human IgG1, lambda, V domains shown)
# VH: QVELVQSGAEVKKPGESLKISCKGSGYSFTSYWIGWVRQAPGKGLEWMGIIDPGDSRTRYSPSFQGQVTISADKSISTAYLQWSSLKASDTAMYYCARGQLYGGTYMDGWGQGTLVTVSS
# VL: DIALTQPASVSGSPGQSITISCTGTSSDIGGYNSVSWYQQHPGKAPKLMIYGVNNRPSGVSNRFSGSKSGNTASLTISGLQAEDEADYYCSSYDIESATPVFGGGTKLTVLG
# modifications: SPDB-DM4 on lysines, DAR 3.7 for the whole antibody, positions not given
# B2: 111B10 zu (humanized, CDR-grafted HC1-LC1) (antibody, V domains shown)
# VH: EVQLVESGGGLVQPGGSLRLSCAASGFSLNNYAMSWVRQAPGKGLEWIGSISTGGLAFYANWAKGRFTISRDNSKNTLYLQMNSLRAEDTAVYYCARNGGGSYIFYYFDLWGQGTLVTVSS
# VL: DIQMTQSPSSLSASVGDRVTITCQASQSISSYLSWYQQKPGKAPKLLIYSASTLASGVPSRFSGSGSGTDFTLTISSLQCEDAATYYCQSYYDIGTSTFGGGTKVEIKR
# B3: 201C15 zu (humanized, CDR-grafted HC1-LC1) (antibody, V domains shown)
# VH: QVQLVESGGGLVQPGGSLRLSCSASGIDLSSYAMGWVRQAPGKGLEYIGTINIGGRVYYASWAKGRFTISRDNSKNTLYLQMNSLRAEDTAVYYCARYYNGGSYDIWGQGTLVTVSS
# VL: DIQMTQSPSTLSASVGDRVTITCQASESIYRVLAWYQQKPGKAPKLLIYDTSTLASGVPSRFSGSGSGTEFTLTISSLQCDDAATYYCQGGYYADSYGIAFGGGTKVEIKR
# B4: 346C6 zu (humanized, CDR-grafted HC1-LC1) (antibody, V domains shown)
# VH: EVQLVESGGGLVQPGGSLRLSCAASGFSLSSYAMIWVRQAPGKGLEWIGTISTGGITYYASWAKGRFTISRDNSKNTLYLQMNSLRAEDTAVYYCARGGYAASSAYYLPYYFDLWGQGTLVTVSS
# VL: DIQMTQSPSSLSASVGDRVTITCQSSQSVYNNNNLAWYQQKPGKVPKLLIYLASTLASGVPSRFSGSGSGTDFTLTISSLQCEDAATYYCLGGCDDDADTFAFGGGTKVEIKR
# B5: 345A12-HC15-LC4 (antibody, human IgG1, kappa, V domains shown)
# VH: QVQLVESGGGVVQPGRSLRLSCAASGIDLSSYAMSWVRQAPGKGLEWIGVIDISGNRFYADWVKGRFTISRDNSKNTLYLQMSSLRAEDTAVYYCARVDSRAWGPFNLWGQGTLVTVSS
# VL: DYQMTQSPSSLSASVGDRVTITCQASQSIFSYLAWYQQKPGKAPKLLIYDASDLASGVPSRFSGSGSGTDFTLTISSLQCEDAATYYCQQGYTRSDVDNAFGGGTKVEIKR
# notes: Humanized rabbit antibody, human IgG1/kappa, unpaired Cys80 in the light chain; also called zu345A12-HC15-LC4
# B6: anetumab (antibody, human IgG1, lambda, V domains shown)
# VH: B1 VH
# VL: B1 VL
# B7: 33O11 (rabbit-human chimeric anti-human mesothelin antibody) (antibody, V domains shown)
# VH: QSVEESGGRLVTPGTPLTLTCTVSGISLSSDAISWVRQAPGKGLEYIGIINGGGNTYYASWAKGRFTISKTSTTVDLKITSPTTEDTATYFCARGIQHGGGNSDYYYYGMDLWGPGTLVTVSS
# VL: EVLMTQTPSSVSAAVGDTVTIKCQASQSISSVLSWYQQKPGQPPKLLIYLASTLASGVPSRFSGSRSGTEFTLTISDLECDDAATYYCQTNYGTSSSNYGFAFGGGTEVVVK
# B8: 237N18 (rabbit-human chimeric anti-human mesothelin antibody) (antibody, V domains shown)
# VH: QSLEESGGRLVAPGTPLTLTCTVSGFSLSSYHMSWVRQAPGEGLEWIGGITAMSRTYYASWAKGRFTISKTSTTVHLKITSPTTEDTATYFCAREPGFVSNIWGPGTLVTVSL
# VL: AVVLTQTASPVSGVVGGTVTIKCQASQNIYSNLAWYQQKPGQRPKLLMYDASTLASGVPSRFKGSGSGTQFTLTISDLECADAATYYCQSISSVDNNVFGGGTEVVVK
# B9: Xi-383I18(AuF) (antibody, V domains shown)
# VH: SQSVEESGGRLVTPGTPLTLTCTVSGFSLSSYAMGWVRQAPGEGLEWIGTISTGGITYYASWAKGRFTISKTSTTVDLKITSPTTEDTATYFCARVGSSGYLFYFFNLWGQGTLVTVSS
# VL: VFELTQTPSPVSAAVGGTVTIRCQASQNIKSYLAWYQQKPGQPPKLLIYEASILASGVSSRFKGSGSGTEFTLTISDLECADAATYYCQSYYAASSNAFGGGTEVVVK
# Experiments:
# [1] = biological target: human mesothelin expressed on cells (human, UniProt Q13421 37-598); experiment: cell-based or functional assay
# human mesothelin expressed on cells, sequence (Q13421 other isoform, or with tags, fused parts or gaps): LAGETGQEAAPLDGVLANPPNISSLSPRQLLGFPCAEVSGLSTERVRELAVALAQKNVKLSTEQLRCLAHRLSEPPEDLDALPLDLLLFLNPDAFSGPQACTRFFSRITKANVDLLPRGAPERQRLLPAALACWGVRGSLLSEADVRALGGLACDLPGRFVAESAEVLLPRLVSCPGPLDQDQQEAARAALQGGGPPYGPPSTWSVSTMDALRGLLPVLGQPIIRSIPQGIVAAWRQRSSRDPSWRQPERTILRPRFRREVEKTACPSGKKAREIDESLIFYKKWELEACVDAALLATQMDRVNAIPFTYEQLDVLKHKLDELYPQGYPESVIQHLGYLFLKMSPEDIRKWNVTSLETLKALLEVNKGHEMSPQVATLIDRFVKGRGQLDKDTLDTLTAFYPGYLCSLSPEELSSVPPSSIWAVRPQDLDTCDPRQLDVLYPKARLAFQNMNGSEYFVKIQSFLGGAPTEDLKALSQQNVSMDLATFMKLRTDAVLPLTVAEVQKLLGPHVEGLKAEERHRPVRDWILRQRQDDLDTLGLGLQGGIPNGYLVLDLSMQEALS
# [2] = biological target: T2, human mesothelin (recombinant, soluble) (human, UniProt Q13421 296-598); experiment: SPR BIAcore, parental mAb captured, mesothelin analyte
# T2 sequence (Q13421 other isoform, or with tags, fused parts or gaps): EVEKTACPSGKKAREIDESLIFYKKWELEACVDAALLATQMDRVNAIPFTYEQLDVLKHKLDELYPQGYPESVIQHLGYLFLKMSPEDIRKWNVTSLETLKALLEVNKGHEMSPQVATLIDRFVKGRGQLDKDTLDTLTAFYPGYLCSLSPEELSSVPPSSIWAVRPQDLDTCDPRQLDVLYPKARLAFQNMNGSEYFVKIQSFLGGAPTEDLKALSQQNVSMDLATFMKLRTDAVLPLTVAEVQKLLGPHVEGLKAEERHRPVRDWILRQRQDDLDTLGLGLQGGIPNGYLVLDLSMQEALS
# [3] = biological target: T3, human mesothelin (recombinant, soluble) (human, UniProt Q13421 296-598, limits assumed); experiment: SPR BIAcore T-100, captured mAb, mesothelin 0.16-100 nM, single-cycle kinetics
# T3 construct: Analyte in BIAcore, coat in ELISA (CHO-MT40 mesothelin), biotinylated on Octet tips; also called MSLN; CHO-MT40 mesothelin
# Method: (§1) Binding affinity: Binding measurements were performed in HBS-P+ buffer on a BIAcore T-100 instrument. Antibodies were diluted to 1 μg/mL in HBS-P+. Samples were centrifuged at 14,000×g for 5 min at room temperature and then supernatants were transferred to a new 1.5 mL BIAcore tube and capped. […] Anti-human antibody capture chip was prepared according to the manufacturer's protocol using a CMS chip with immobilization wizard. Final capture antibody levels were 8000-9000RU, in HBS-P+.
# (§2) Antibodies were captured on flow cells 2-4 by sequential injections of individual ligand solutions for 90 sec at 10 μL/min. Analyte injection was done in a single-cycle kinetics manner by sequential injections of analyte solutions from low to high concentration for 240 sec each at 30 μL/min. Detection was 2-1, 3-1, 4-1. Double-referencing was performed by a sequence of identical ligand capture injections, followed by 5 buffer-only injections for 240 sec each, dissociation for 1800 sec, and regeneration as above. All ligands were analyzed for binding to mesothelin in duplicate. Kinetic analysis was performed using BIAEvaluations software using a 1:1 Langmuir fitting model. On-rate, off-rate, and affinity constants were averaged from duplicate runs.
# rat mesothelin = biological target: T1, rat mesothelin; experiment: SPR BIAcore, captured mAb, mesothelin analyte
# Method: as §1, §2
# [4] = biological target: cynomolgus monkey mesothelin (cynomolgus monkey); experiment: SPR BIAcore T-100, captured mAb, mesothelin analyte, single-cycle kinetics
# Method: as §1, §2
# [5] = biological target: T3, human mesothelin (recombinant, soluble); experiment: SPR BIAcore, run 4
# Method: as §2, with “Anti-mesothelin antibody binding affinity to mesothelin was measured by BIAcore (BIAcore T-100, GE healthcare, #1426075), using a series S CMS chip. Antibody concentrations were adjusted to 1 μg/mL and mesothelin (50 μg) to 100 nM in 1×HBS-P+ buffer (GE Healthcare). Anti-human antibody capture chip was prepared according to the manufacturer's protocol using a CMS chip with immobilization wizard. Final capture antibody levels were 8000-9000 RU, in HBS-P+. Chip was prepared for assay with five cycles of 300 sec buffer injection followed by 30 sec regeneration, all at 30 μL/min across all four flow cells. Antibodies” for “Antibodies”
# [6] = biological target: T3, human mesothelin (recombinant, soluble); experiment: SPR BIAcore, affinity against anetumab as reference
# Method: as §1, §2
# [7] = biological target: T2, human mesothelin (recombinant, soluble); experiment: SPR BIAcore, captured mAb, mesothelin analyte
Binder,Kd [2] [nM],koff [2] [s⁻¹],kon [2] [M⁻¹ s⁻¹],Kd [7] [nM],koff [7] [s⁻¹],kon [7] [M⁻¹ s⁻¹],other results
B1,,,,,,,"EC50 (read off the curve): % killing of NCI-N87 cells, BAY 94-9343 alone [1]: ~0.8 nM; EC50 (read off the curve): % killing of NCI-N87 cells, BAY 94-9343 with 3 uM unconjugated anetumab [1]: ~0.8 nM"
B2,6.5,0.003,510000,,,,
B3,4.2,0.0011,310000,,,,
B4,8.9,0.093,1.33e+07,,,,
B5,,,,,,,Kd [3]: 0.195 nM; koff [3]: 0.000285 s⁻¹; kon [3]: 1.46e+06 M⁻¹ s⁻¹; binding result (rat mesothelin): no binding (tested: 100 nM highest analyte concentration); Kd [4]: 88.6 nM; koff [4]: 0.000751 s⁻¹; kon [4]: 10500 M⁻¹ s⁻¹; Kd [5]: 0.0779 nM; koff [5]: 0.000112 s⁻¹; kon [5]: 1.44e+06 M⁻¹ s⁻¹; fold higher affinity than anetumab [6]: 40 fold
B6,,,,,,,Kd [3]: 7.26 nM; koff [3]: 0.00112 s⁻¹; kon [3]: 168000 M⁻¹ s⁻¹; binding result (rat mesothelin): no binding (tested: 100 nM highest analyte concentration)
B7,,,,0.335,0.000668,1.99e+06,
B8,,,,3.38,0.00428,1.27e+06,
B9,,,,0.28,0.000281,1.01e+06,
